Assay results reported in patent US9526713B2, “Use of dencichine in preparation of drug for treating thrombocytopenia” (KUNMING SHENGHUO PHARMACEUTICAL (GROUP) CO., LTD., priority 2013, dated 2016).
Read-outs that look alike come from different tables or passages of the source.

Columns and labels:
[1] = system: ITP model mice; type: in vivo, BALB/C mice; details: 5 mg/(kg·d) intragastric, 14 days; end of experiment
Description: (§1) Health BALB/C mice (body weight 18˜22 g) are randomly divided into six groups with 12 mice for each group:
Blank group, Model group, Prednisone Acetate Group, Dencichine (high dose, middle dose, and low dose) groups.
Modeling method: blood was taken from orbital vein of BALB/C Mice, followed by EDTA-Na2 Anticoagulation, and then platelets are separated and washed. The prepared platelet suspension solution was mixed uniformly with equal amount of complete Freund's adjuvant and incomplete Freund's adjuvant respectively. In the first week, antigen containing complete Freund's adjuvant is subcutaneously injected into hind paw, back and groin of the guinea pig. Injections are done for 4 times in total, with 5 spots for each injection and 100 μl for each spot. In the 6th week, non-anticoagulated whole blood was taken from the guinea pigs, and was centrifuged for 10 min under 3000 r/min to produce a supernate, which is the anti-mouse platelet serum (GP-APS) of the guinea pigs. The supernate was placed in a water bath (56° C.) for 30 min for complement inactivation, and then the inactivated supernate was diluted with normal saline, followed by test of antibody titers by agar diffusion method, and finally was stored in a refrigerator at −20° C. for later use.
(§2) Except the normal group, the mice of the remain five groups are injected with anti-mouse platelet serum (APS) of the guinea pig with a dose of 100 μl/20 g body weight, via intraperitoneal injection, on the 1st, 3rd, 5th, 7th, 9th, 11th and 13th day of the experiment.
(§3) The mice of each group are given intragastric administration from the first day. […] The mice of the prednisone acetate group are given intragastric administration of suspension of prednisone acetate at 5 mg/(kg·d). The mice of other groups are given intragastric administration of same volumetric of normal saline at 0.2 ml/20 g body weight. Intragastric administration for once each day, and continuous administration for 14 days.
Observation of the Subcutaneous Purpura:
Class I, minor bleeding are found at injection sites, and hemorrhagic spots are interspersed at other sites;
Class II, overt bleeding are found at injection sites, and ecchymosis and petechiae are found at other sites;

[2] = system: ITP model mice; type: in vivo, BALB/C mice; details: 5 mg/kg intragastric
Method: as §1, §2
The mice of each group are given intragastric administration from the first day. The mice of the dencichine high dose, middle-dose and low dose groups are given intragastric administration at […] respectively. The mice of the prednisone acetate group are given intragastric administration of suspension of prednisone acetate at 5 mg/(kg·d). The mice of other groups are given intragastric administration of same volumetric of normal saline at 0.2 ml/20 g body weight. Intragastric administration for once each day, and continuous administration for 14 days.
20 μl Blood was collected from orbital veins of each mouse of each group before Modeling and on 14th test day respectively, and dropped into anticoagulative tubes, then platelet count was detected by an automated blood analyzers.

[3] = type: in vivo, BALB/C mice; details: 5 mg/(kg·d) intragastric
Method: as §1, §2, §3
The weights of mice of each group are respectively measured before modeling, on 7th test day, and on 14th test day.

[4] = system: female mouse; details: Zhao Guoqiang et al., 1984; cited from earlier work
[5] = system: rats with thrombocytopenia caused by carboplatin; experiment: Platelet count of rats with thrombocytopenia caused by carboplatin, different prophylactic administration time; type: in vivo, rat
[6] = system: rats suffering thrombopenia induced by carboplatin; experiment: Platelet count of rats suffering thrombopenia induced by multiple injections of carboplatin; type: in vivo, Wistar rats; details: 260 μg/kg s.c., carboplatin model
Method: (§4) 81 rats are prepared and randomly divided into eight groups: • blank control group, • high-dose group A (4 mg/kg, intraperitoneal injection, non modeling), • model group (40 mg/kg, tail vein injection), • interleukin-11 group (260 μg/kg, subcutaneous injection), • high dose group B (4 mg/kg, intraperitoneal injection, modeling), • high dose group (4 mg/kg, intraperitoneal injection), • middle dose group (1 mg/kg, intraperitoneal injection), and • low dose group (0.25 mg/kg, intraperitoneal injection),
(§5) wherein, the Model group has 11 rats, and the other groups has 10 rats respectively. Before the experiment, the animals are asked to adapt the environment for 2 days, and then blood is taken from their tails for detecting hematological index.
(§6) After administration for 10 days, blood is taken from tails of rats from blank control group, high-dose group A, and positive drug group respectively for detecting hematological index.
(§7) Thereafter, all animals, except for those of blank group and high-dose group A, are individually injected with carboplatin (40 mg/kg) for modeling, and followed by successive administration for 15 days. During these 15 days, the rats of high-dose group A and high dose group B are stopped from administration, and taken blood from the tail on 5th day, 10th day and 15th day after the modeling respectively for detecting hematological indices. After 15th day of modeling, carboplatin (40 mg/kg) is injected again for a second modeling, and all the groups take successive administration according to the foregoing method, once a day for successive 10 days. Before each hematological indices detection, animals are weighed respectively. Taking the tails' blood of rats on 5th day after the second injection of carboplatin for detecting hematological indices, and taking the tails' blood of rats on 10th day after the second injection of carboplatin for detecting the indices of hematology, reticulocytes and coagulation; and weighing animals and killing them; and weighing liver, thymus, spleen and adrenal gland taken from the dead rats, and calculating out viscera indices; further taking out marrow for doing pathological examination.

[7] = Organ index of rats suffering thrombopenia induced by carboplatin; type: in vivo, Wistar rats
Method: as §4, §7

[8] = Body weight of rats suffering thrombopenia induced by carboplatin; type: in vivo, Wistar rats; details: for body weight: 260 μg/kg s.c., carboplatin model
Method: as §4, §5, §6, §7

[9] = 5th day after first injection of carboplatin
[10] = 5th day after second injection of carboplatin
[11] = 10th day after first injection of carboplatin
[12] = 10th day after second injection of carboplatin
[13] = 15th day after first injection of carboplatin
[14] = prophylactic administration for 10 days
[15] = 260 μg/kg s.c., carboplatin model

## CC(=O)OCC(=O)[C@@]1(O)CC[C@H]2[C@@H]3CCC4=CC(=O)C=C[C@]4(C)[C@H]3C(=O)C[C@@]21C [Prednisone acetate, Prednisone Acetate, reference compound]
[1]
  Subcutaneous purpura, bleeding degree +: 6 number of mice
  Subcutaneous purpura, bleeding degree ++: 2 number of mice
  Subcutaneous purpura, bleeding degree +++: 0 number of mice
  Subcutaneous purpura, bleeding degree −: 0 number of mice
[2]; Before Modeling
  platelet count: 756.9 ± 130.1 ×10^9/L
[2]; Day 14
  platelet count: 579.0 ± 70.7 ×10^9/L
[3]; Day 0
  body weight: 19.8 ± 2.1 g
[3]; Day 7
  body weight: 19.5 ± 1.8 g
[3]; Day 14
  body weight: 20.6 ± 1.7 g

## N[C@H](CNC(=O)C(=O)O)C(=O)O [β-N-oxalyl-D-α, β-diaminopropionic acid, reference compound]
[4]
  effect on the hemostasis and increase of platelet count: significant effect

B1: Interleukin-11: Recombinant human interleukin-11 for injection, sterile lyophilized preparation, Qilu Pharmaceutical; positive drug (protein, UniProt P20809 22-199, looked up)
Interleukin-11: PGPPPGPPRVSPDPRAELDSTVLLTRSLLADTRQLAAQLRDKFPADGDHNLDSLPTLAMSAGALGALQLPGVLTRLRADLLSYLRHVQWLRRAGGSSLKTLEPELGTLQARLDRLLRRLQLLMSRLALPQPPPDPPAPPLAPPSSAWGGIRAAHAILGGLHLTLDWAVRGLLLLKTRL
[5]; prophylactic administration for 3 days
  platelet count compared with that of model group: no significant difference
[5]; prophylactic administration for 3 days, after prophylactic administration
  platelet count: 820.7 ± 155.13 ×10^9/L
[5]; prophylactic administration for 3 days, initial value
  platelet count: 736.3 ± 175.56 ×10^9/L
[5]; prophylactic administration for 3 days, injection of carboplatin for 10 days
  platelet count: 88.5 ± 51.49 ×10^9/L
[5]; prophylactic administration for 5 days and 7 days
  platelet count compared with that of model group: increase the platelet count
[5]; prophylactic administration for 5 days, after prophylactic administration
  platelet count: 759.5 ± 145.34 ×10^9/L
[5]; prophylactic administration for 5 days, initial value
  platelet count: 724.0 ± 178.87 ×10^9/L
[5]; prophylactic administration for 5 days, injection of carboplatin for 10 days
  platelet count: 178.3 ± 57.08 ×10^9/L
[5]; prophylactic administration for 7 days, after prophylactic administration
  platelet count: 860.5 ± 113.92 ×10^9/L
[5]; prophylactic administration for 7 days, initial value
  platelet count: 732.3 ± 197.06 ×10^9/L
[5]; prophylactic administration for 7 days, injection of carboplatin for 10 days
  platelet count: 179.5 ± 26.76 ×10^9/L
[6]; [9]
  platelet count: 564.0 ± 126.1 ×10^9/L
[6]; [10]
  platelet count: 953.7 ± 265.8 ×10^9/L
[6]; [11]
  platelet count: 234.6 ± 77.9 ×10^9/L
[6]; [12]
  platelet count: 290.7 ± 180.9 ×10^9/L
[6]; [13]
  platelet count: 1183.3 ± 92.5 ×10^9/L
[6]; before experiment
  platelet count: 625.4 ± 124.92 ×10^9/L
[6]; [14]
  platelet count: 761.6 ± 226.76 ×10^9/L
[7]; [15]
  organ index, Adrenal gland: 0.04 ± 0.01 g/100 g body weight
  organ index, Liver: 4.10 ± 0.30 g/100 g body weight
  organ index, Spleen: 0.39 ± 0.05 g/100 g body weight
  organ index, Thymus gland: 0.14 ± 0.05 g/100 g body weight
[7]; interleukin-11 group
  index of livers, spleens, suprarenal glands compared with the blank control group: obvious increases
[8]; [9]
  body weight: 267.6 ± 41.79 g
[8]; [10]
  body weight: 294.6 ± 47.61 g
[8]; [11]
  body weight: 287.1 ± 41.57 g
[8]; [12]
  body weight: 291.7 ± 52.46 g
[8]; [13]
  body weight: 298.3 ± 44.22 g
[8]; before experiment
  body weight: 186.7 ± 9.63 g
[8]; [14]
  body weight: 268.8 ± 32.65 g
[8]; 280 μg/kg subcutaneous injection, beginning of the experiment
  body weight and state: obvious body weight loss
